Target: T1, endogenous Asc of mouse macrophages (mouse (endogenous in BMDM)), Q9EPB4
T1 chain: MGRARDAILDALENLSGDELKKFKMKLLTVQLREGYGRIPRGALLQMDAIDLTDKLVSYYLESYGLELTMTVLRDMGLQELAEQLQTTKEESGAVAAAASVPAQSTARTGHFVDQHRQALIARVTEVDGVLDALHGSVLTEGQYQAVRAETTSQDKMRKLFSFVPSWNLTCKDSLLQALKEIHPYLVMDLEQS
Test: cross-linking; insoluble fraction (pellet) of BMDM lysates cross-linked with 2 mM disuccinimidyl suberate for 30 min, immunoblot with anti-Asc; cells infected with WT Shigella or Salmonella, T3SS-deficient or fliA mutants, nucleofected with MxiI, or with siRNA to Naip2 or Naip5
Conditions: remark: other sources report otherwise

B1: endogenous Asc of mouse macrophages, Q9EPB4 1-193 (natural protein)
chain: MGRARDAILDALENLSGDELKKFKMKLLTVQLREGYGRIPRGALLQMDAIDLTDKLVSYYLESYGLELTMTVLRDMGLQELAEQLQTTKEESGAVAAAASVPAQSTARTGHFVDQHRQALIARVTEVDGVLDALHGSVLTEGQYQAVRAETTSQDKMRKLFSFVPSWNLTCKDSLLQALKEIHPYLVMDLEQS
stoichiometry N: 2
